According to PMC8819685:

Molecular target: Human plasminogen (human)
Sequence (P00747 20-810): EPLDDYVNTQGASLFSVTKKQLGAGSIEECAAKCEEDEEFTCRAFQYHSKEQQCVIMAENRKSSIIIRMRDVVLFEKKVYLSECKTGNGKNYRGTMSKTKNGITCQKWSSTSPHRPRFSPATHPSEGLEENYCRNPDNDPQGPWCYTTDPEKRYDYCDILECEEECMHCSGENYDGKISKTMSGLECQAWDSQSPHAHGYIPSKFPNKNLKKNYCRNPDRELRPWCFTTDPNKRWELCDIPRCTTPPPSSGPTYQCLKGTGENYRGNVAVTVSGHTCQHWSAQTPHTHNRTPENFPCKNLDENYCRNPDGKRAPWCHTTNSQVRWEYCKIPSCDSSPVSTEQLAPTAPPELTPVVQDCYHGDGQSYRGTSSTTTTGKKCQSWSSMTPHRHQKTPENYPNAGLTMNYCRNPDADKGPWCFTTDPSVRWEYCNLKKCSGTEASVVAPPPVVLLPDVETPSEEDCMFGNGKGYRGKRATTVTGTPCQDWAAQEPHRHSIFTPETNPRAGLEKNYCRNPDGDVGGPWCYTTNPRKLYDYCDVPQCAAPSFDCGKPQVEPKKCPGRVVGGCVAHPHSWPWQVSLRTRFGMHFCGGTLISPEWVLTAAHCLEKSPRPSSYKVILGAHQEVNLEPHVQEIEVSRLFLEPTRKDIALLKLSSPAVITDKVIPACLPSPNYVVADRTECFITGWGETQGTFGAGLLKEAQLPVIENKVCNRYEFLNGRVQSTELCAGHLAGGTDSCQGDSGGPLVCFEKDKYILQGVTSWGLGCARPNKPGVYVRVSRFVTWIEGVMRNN

B1: EPF3, fibrinolytic protein from Pheretima vulgaris (enzyme)
chain: ILGGTEARVGEIPWQLSQQRGGSHSCGASLLRPGSALSAAHCVDGAPPADVRIVAGLHLRSDESTAVASLAESFLIHPSYNVGEGTFPNDIAIIYLLTNINSAPVENIDFALLPPDNVEQFVGFTCVLSGWGRTSASNVLPDALQKVSIDVITTAECDSRMAAVAGADCTDAHIAVFDPALQKGSCNGDSGGPMNCPLSGEFVVAGVTSWGISGGGACLPEYPSVYTRTGFYRQWIIDNIR
plasminogen activation on fibrin plates: fibrinolytic zone of the mixture of EPF3 and plasminogen against that of EPF3 alone (3, 6, 18 h, 37°C): 20.2%
